Values joined by “and” are separate entries in the source; they are usually repeats but may differ in a detail not shown here. Identical values can stand only once.
Columns and labels:
[1] = system: spontaneously beating normal mouse hearts (C57BL/6J); test: Langendorff preparation, hearts perfused with rMIF (C57BL/6J); settings: C57BL/6J hearts, 20 ng/ml rMIF, 1.5 ml/m
Method: (§1) Determination of cardiac function in response to rMIF. C57BL/6J and C3H/HeJ mice were used in the Langendorff assays. Briefly, 200 U heparin sulfate was given i.p., the mice sacrificed 20 m later, and the heart immediately removed and placed on ice in Krebs-Hanseleit Buffer ([…], 118 mM NaCl, 4.7 mM KCL, 1.2 mM KH2PO4, 1.2 mM MgSO4, 2.5 mM CaCl2, 11.1 mM glucose, pH 7.4, which was prepared fresh with demineralized, deionized water and bubbled with 95% O2 and 5% CO2 (PO2 590 mmHg, pCO2 38 mmHg)). The aorta was cannulated with PE50 tubing, the heart perfused in a retrograde manner through the aortic root with prefiltered, oxygenated Krebs-Hanseleit Buffer at a constant flow rate of 1.5 ml/m (T 37° C.) and a recirculating volume of 100 ml. The heart was placed in a water-jacketed chamber to maintain constant temperature and humidity. PE60 intratnedic polyethylene tubing was connected to a Statham pressure transducer inserted into the left ventricle (LV) to measure LV pressure. Temperature was monitored using a 27 G thertnistor needle inserted into the LV muscle. […] Following stabilization, LV pressure and its first derivative (dP/dt), heart rate, and coronary perfusion were measured simultaneously with a multichannel Grass 7D polygraph (Grass Instruments, Quincy, M A). Cardiac function for all hearts was determined by plotting peak systolic LV pressure and ±dP/dt,Ia, values against changes in coronary flow rate.
(§2) MIF induces systolic and diastolic cardiac dysfunction. […] Responses to MIF were determined in hearts from both C57BL/6J mice, and C3H/HeJ mice. C3H/HeJ mice are resistant to endotoxin (41-43), therefore controlling for the possibility that any depression observed might be due to trace endotoxin in the perfusate. Table 2 illustrates the responses of both mouse strains to retrograde aortic perfusion at 1.5 ml/m with control perfusate or perfusate containing 20 ng/ml recombinant MIF. Perfusion with MIF led to a significant decrease in LVP, +dP/dtmax, and −dP/dt max in both mouse strains. FIG. 4 illustrates the effect of MIF over a range of coronary flow rates. […]

[2] = system: spontaneously beating normal mouse hearts (endotoxin resistant C3H/HeJ); test: Langendorff preparation, hearts perfused with rMIF (C3H/HeJ); settings: 20 ng/ml rMIF, 1.5 ml/m
Method: as §1, §2

isolated TNFR−/− hearts = test: Langendorff perfusion with rMIF, TNFR−/− hearts; parameters: species or system mouse
Method: (§3) Ex vivo cardiac function determination by Langendorff Mouse heart function was determined using the Langendorff assay procedure. Briefly, 200 Units heparin sulfate were injected intraperitoneally and the mice were sacrificed 20 minutes later. The heart was immediately removed and placed on ice in Krebs-Henseleit Buffer ([…], 118 mM NaCl, 4.7 mM KCL, 1.2 mM KH2PO4, 1.2 mM MgSO4, 2.5 mM CaCl2, 11.1 mM glucose, pH 7.4, which was prepared fresh with demineralized, deionized water and bubbled with 95% O2 and 5% CO2(pO2 590 mmHg, pCO2 38 mmHg)). The aorta was cannulated with PE50 tubing, the heart perfused in a retrograde manner through the aortic root with pre-filtered, oxygenated Krebs-Henseleit Buffer at a constant flow rate of 1.5 ml/minute (constant temperature of 37° C., 100 ml recirculating volume). The heart was placed in a water-jacketed chamber to maintain constant temperature and humidity. Intramedic polyethylene tubing (PE60), connected to a Statham pressure transducer, was inserted into the left ventricle (LV) to measure LV pressure. Temperature was monitored using a 27 gauge thermistor needle inserted into the LV muscle. […] Following stabilization, LV pressure and its first derivative (dP/dt), heart rate, and coronary perfusion were measured simultaneously with a multi-channel Grass 7D polygraph (Grass Instruments, Quincy, Mass.). Ventricular performance as a function of coronary perfusion was determined for all hearts by plotting peak systolic LV pressure and ±dP/dtmax values against incremental increases in coronary flow rate.
(§4) MIF has direct cardiodepressant effects in TNFR−/− mice to the same extent as in WT mice.

[3] = system: isolated wild type hearts; test: Langendorff perfusion with rMIF, wild type hearts; parameters: species or system mouse; settings: WT + rMIF 20 ng/ml
Method: as §3, §4

CD74 KO mouse hearts = test: Langendorff, rhMIF added to perfusate, CD74 KO mouse hearts; parameters: LVP / +dP/dt / −dP/dt / TPP / CVR: unit not given beside the values
[4] = CD74 K/O + rhMIF, single hearts by date and mean (x), n 3
[5] = CD74 K/O + rhMIF, single hearts by date and mean (x), n 3, mean
[6] = CD74 KO + rhMIF in perfusate, n = 3

B1: rMIF: recombinant human macrophage migration inhibitory factor added to the heart perfusate at 20 ng/ml (protein, UniProt P14174 2-115, looked up)
Macrophage migration …: PMFIVNTNVPRASVPDGFLSELTQQLAQATGKPPQYIAVHVVPDQLMAFGGSSEPCALCSLHSIGKIGGAQNRSYSKLLCGLLAERLRISPDRVYINYYDMNAANVGWNNSTFA
- +dP/dt max ([1]; n = 10): 1920 ± 89 mm Hg/see
- −dP/dt max ([1]; n = 10): 1545 ± 122 mm Hg/sec
- LVP ([1]; n = 10, mean peak): 77.9 ± 5.1 mm Hg
- +dP/dt max ([2]; n = 7): 1800 ± 106 mm Hg/see
- −dP/dt max ([2]; n = 7): 1343 ± 138 mm Hg/sec
- LVP ([2]; n = 7, mean peak): 75.2 ± 5.5 mm Hg
- CPP (isolated TNFR−/− hearts; TNF KO + rMIF 20 ng/ml, n = 4): 91.5 ± 6.6 mmHg
- CVR (isolated TNFR−/− hearts; TNF KO + rMIF 20 ng/ml, n = 4): 61.0 ± 4.4 mmHg
- DR (isolated TNFR−/− hearts; TNF KO + rMIF 20 ng/ml, n = 4): 1.30 ± 0.10
- HR (isolated TNFR−/− hearts; TNF KO + rMIF 20 ng/ml, n = 4): 335 ± 20 bpm
- RT90 (isolated TNFR−/− hearts; TNF KO + rMIF 20 ng/ml, n = 4): 71.3 ± 4.2 ms
- TPP (isolated TNFR−/− hearts; TNF KO + rMIF 20 ng/ml, n = 4): 67.0 ± 2.4 ms
- Time to Max +dP/dt (isolated TNFR−/− hearts; TNF KO + rMIF 20 ng/ml, n = 4): 47.0 ± 2.4 ms
- Time to Max −dP/dt (isolated TNFR−/− hearts; TNF KO + rMIF 20 ng/ml, n = 4): 47.0 ± 2.4 ms
- dP40 (isolated TNFR−/− hearts; TNF KO + rMIF 20 ng/ml, n = 4): 1613 ± 105 mmHg/sec
- −dP/dt max (isolated TNFR−/− hearts; TNF KO + rMIF 20 ng/ml, n = 4): 1413 ± 151 mmHg/sec
- LVP (isolated TNFR−/− hearts; TNF KO + rMIF 20 ng/ml, n = 4, mean ± SE): 66.0 ± 4.7 mmHg
- +dP/dt max (isolated TNFR−/− hearts; TNFR−/− + rMIF 20 ng/ml, n = 4): 1800 ± 100 mmHg/sec
- onset of cardiac dysfunction (systolic and diastolic) (isolated TNFR−/− hearts; isolated hearts (Langendorf prep), both TNFR−/− and wild type mice): ≤ 20 min
- +dP/dt max ([3]; n = 5): 1400 ± 158 mmHg/sec
- CPP ([3]; n = 5): 84.8 ± 8.6 mmHg
- CVR ([3]; n = 5): 56.5 ± 5.7 mmHg
- DR ([3]; n = 5): 1.32 ± 0.06
- HR ([3]; n = 5): 338 ± 10 bpm
- RT90 ([3]; n = 5): 75.2 ± 2.9 ms
- TPP ([3]; n = 5): 71.6 ± 1.6 ms
- Time to Max +dP/dt ([3]; n = 5): 49.2 ± 0.5 ms
- Time to Max −dP/dt ([3]; n = 5): 52.4 ± 1.7 ms
- dP40 ([3]; n = 5): 1240 ± 174 mmHg/sec
- −dP/dt max ([3]; n = 5): 1070 ± 146 mmHg/sec
- LVP ([3]; n = 5, mean ± SE): 55.6 ± 5.9 mmHg
- +dP/dt (CD74 KO mouse hearts; [4]): 1800 and 1600 and 2200
- CVR (CD74 KO mouse hearts; [4]): 45 and 53 and 71
- DR (CD74 KO mouse hearts; [4]): 1.286 and 1.455 and 1.222
- HR (CD74 KO mouse hearts; [4]): 320 and 325
- LVP (CD74 KO mouse hearts; [4]): 64 and 50 and 88
- Max + d (CD74 KO mouse hearts; [4]): 45 and 50 and 40
- Max − d (CD74 KO mouse hearts; [4]): 53 and 52
- RT90 (CD74 KO mouse hearts; [4]): 80 and 72
- TPP (CD74 KO mouse hearts; [4]): 70 and 75 and 63
- dP40 (CD74 KO mouse hearts; [4]): 1900
- −dP/dt (CD74 KO mouse hearts; [4]): 1400 and 1100 and 1800
- +dP/dt (CD74 KO mouse hearts; [5]): 1866.667
- CVR (CD74 KO mouse hearts; [5]): 56.33
- DR (CD74 KO mouse hearts; [5]): 1.321
- HR (CD74 KO mouse hearts; [5]): 321.6667
- LVP (CD74 KO mouse hearts; [5]): 67.33
- Max − d (CD74 KO mouse hearts; [5]): 52.67
- RT90 (CD74 KO mouse hearts; [5]): 77.33
- TPP (CD74 KO mouse hearts; [5]): 69.33
- dP40 (CD74 KO mouse hearts; [5]): 1666.667
- −dP/dt (CD74 KO mouse hearts; [5]): 1433.333
- +dP/dt max (CD74 KO mouse hearts; [6]): 1867 ± 176 mmHg/sec
- Coronay Perfusion Pressue (CD74 KO mouse hearts; [6]): 86.0 ± 23.6 mmHg
- Coronay Vascular Resistance (CD74 KO mouse hearts; [6]): 56.3 ± 7.7 mmHg
- Heart Rate (CD74 KO mouse hearts; [6]): 322 ± 2 bpm
- Left Ventricular Pressure (CD74 KO mouse hearts; [6]): 67.3 ± 14.4 mmHg
- Time to 90% Relaxation (CD74 KO mouse hearts; [6]): 77.3 ± 2.7 ms
- Time to Max +dP/dt (CD74 KO mouse hearts; [6]): 45.0 ± 2.9 ms
- Time to Max −dP/dt (CD74 KO mouse hearts; [6]): 52.7 ± 0.3 ms
- Time to Peak Pressue (CD74 KO mouse hearts; [6]): 69.3 ± 3.5 ms
- dP40 (CD74 KO mouse hearts; [6]): 1662 ± 120 mmHg/sec
- −dP/dt max (CD74 KO mouse hearts; [6]): 1433 ± 202 mmHg/sec

— patent US20050202010A1, “Method of treatment and bioassay involving macrophage migration inhibitory factor (MIF) as cardiac-derived myocardial depressant factor” (priority 2003, published 2005)
